Assay results taken from publication PMC4681580 (Journal of immunology (Baltimore, Md. : 1950), 2015).
Primed or numbered codes have the meaning given here. No end group written: not given here. FITC′ = fluorescein isothiocyanate

T1: wild type rat TAP1/TAP2a complex (rat) (UniProt P36370)
T1 sequence (P36370 whole entry, looked up): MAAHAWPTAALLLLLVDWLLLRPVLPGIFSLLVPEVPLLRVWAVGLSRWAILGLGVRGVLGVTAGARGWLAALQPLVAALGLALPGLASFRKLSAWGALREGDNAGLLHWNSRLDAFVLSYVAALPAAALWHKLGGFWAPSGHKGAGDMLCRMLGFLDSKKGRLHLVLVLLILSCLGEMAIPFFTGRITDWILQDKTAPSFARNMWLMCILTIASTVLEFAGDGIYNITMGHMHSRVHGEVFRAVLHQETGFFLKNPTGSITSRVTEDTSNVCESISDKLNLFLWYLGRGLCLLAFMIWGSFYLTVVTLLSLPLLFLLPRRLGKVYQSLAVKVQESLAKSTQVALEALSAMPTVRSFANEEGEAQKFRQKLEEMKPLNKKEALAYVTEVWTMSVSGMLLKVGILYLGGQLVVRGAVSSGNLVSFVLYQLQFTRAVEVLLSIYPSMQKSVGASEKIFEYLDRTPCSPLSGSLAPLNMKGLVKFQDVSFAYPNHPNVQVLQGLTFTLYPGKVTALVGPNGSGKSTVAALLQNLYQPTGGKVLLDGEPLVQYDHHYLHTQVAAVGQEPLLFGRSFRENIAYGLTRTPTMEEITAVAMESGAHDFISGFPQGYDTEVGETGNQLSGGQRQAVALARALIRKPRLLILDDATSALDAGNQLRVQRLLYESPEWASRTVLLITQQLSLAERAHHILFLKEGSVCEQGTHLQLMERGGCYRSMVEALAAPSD
T1 sequence (P36372 whole entry, looked up): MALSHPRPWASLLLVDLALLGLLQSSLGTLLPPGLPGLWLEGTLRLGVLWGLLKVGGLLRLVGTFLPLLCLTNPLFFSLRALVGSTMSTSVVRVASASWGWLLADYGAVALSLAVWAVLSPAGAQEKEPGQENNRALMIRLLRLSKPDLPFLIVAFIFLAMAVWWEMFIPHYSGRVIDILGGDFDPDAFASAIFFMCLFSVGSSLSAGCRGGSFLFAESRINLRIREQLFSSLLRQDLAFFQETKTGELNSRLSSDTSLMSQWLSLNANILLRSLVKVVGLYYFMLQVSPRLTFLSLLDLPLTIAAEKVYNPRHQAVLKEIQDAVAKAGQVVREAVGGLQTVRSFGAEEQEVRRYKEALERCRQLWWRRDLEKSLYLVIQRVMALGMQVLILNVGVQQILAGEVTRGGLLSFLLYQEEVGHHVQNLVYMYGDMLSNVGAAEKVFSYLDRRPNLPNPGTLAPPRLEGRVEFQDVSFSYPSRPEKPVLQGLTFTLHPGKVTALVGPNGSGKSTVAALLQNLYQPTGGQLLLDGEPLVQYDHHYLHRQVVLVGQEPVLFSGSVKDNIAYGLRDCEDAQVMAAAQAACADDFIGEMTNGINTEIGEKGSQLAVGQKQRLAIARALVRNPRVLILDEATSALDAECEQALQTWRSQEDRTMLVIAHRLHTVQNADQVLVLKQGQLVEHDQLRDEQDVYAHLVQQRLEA

T2: rTAP1/TAP2a(E218M) (rat) (UniProt P36370)
T2 sequence (P36370 1-725 with E218M, looked up): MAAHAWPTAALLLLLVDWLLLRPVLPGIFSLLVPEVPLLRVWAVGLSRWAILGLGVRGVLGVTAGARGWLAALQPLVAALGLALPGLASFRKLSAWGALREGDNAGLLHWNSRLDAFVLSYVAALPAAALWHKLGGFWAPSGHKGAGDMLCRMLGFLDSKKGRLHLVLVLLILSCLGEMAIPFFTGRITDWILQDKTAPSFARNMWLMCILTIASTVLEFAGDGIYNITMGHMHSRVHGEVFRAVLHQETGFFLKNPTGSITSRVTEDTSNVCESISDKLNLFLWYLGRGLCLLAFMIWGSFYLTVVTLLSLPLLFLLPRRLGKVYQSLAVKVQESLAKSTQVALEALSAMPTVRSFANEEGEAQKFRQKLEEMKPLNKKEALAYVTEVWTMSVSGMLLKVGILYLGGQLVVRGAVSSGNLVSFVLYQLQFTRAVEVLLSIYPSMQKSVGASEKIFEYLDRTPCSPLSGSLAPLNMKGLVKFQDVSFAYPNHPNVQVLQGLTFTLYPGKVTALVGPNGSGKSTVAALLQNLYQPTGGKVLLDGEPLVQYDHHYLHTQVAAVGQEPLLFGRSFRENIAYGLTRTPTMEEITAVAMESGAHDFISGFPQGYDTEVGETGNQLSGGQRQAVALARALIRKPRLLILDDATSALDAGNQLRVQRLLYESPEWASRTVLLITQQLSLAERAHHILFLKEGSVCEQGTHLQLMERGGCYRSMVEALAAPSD
T2 sequence (P36372 1-703 with E218M, looked up): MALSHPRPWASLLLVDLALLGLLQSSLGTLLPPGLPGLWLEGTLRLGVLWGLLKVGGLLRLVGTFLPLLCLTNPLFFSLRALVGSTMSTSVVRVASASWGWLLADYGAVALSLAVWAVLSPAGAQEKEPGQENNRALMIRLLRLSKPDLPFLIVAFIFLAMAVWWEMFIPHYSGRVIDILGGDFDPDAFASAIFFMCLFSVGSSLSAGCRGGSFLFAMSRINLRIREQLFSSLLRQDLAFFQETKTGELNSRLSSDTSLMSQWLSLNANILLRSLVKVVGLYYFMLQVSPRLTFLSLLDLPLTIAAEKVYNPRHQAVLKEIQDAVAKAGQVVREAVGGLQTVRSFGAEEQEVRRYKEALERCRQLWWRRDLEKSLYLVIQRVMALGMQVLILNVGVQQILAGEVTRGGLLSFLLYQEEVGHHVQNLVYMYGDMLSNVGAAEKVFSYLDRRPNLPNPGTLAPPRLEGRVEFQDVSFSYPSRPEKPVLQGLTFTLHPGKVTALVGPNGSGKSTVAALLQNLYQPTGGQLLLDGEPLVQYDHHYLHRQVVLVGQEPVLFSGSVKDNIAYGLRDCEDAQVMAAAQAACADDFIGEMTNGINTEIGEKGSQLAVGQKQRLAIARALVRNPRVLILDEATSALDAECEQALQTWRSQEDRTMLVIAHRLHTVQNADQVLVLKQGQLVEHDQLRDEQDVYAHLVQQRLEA

T3: rTAP1/TAP2a(E218M/Q262R/S265P/L266F) (rat) (UniProt P36370)
T3 sequence (P36370 1-725 with E218M Q262R S265P L266F, looked up): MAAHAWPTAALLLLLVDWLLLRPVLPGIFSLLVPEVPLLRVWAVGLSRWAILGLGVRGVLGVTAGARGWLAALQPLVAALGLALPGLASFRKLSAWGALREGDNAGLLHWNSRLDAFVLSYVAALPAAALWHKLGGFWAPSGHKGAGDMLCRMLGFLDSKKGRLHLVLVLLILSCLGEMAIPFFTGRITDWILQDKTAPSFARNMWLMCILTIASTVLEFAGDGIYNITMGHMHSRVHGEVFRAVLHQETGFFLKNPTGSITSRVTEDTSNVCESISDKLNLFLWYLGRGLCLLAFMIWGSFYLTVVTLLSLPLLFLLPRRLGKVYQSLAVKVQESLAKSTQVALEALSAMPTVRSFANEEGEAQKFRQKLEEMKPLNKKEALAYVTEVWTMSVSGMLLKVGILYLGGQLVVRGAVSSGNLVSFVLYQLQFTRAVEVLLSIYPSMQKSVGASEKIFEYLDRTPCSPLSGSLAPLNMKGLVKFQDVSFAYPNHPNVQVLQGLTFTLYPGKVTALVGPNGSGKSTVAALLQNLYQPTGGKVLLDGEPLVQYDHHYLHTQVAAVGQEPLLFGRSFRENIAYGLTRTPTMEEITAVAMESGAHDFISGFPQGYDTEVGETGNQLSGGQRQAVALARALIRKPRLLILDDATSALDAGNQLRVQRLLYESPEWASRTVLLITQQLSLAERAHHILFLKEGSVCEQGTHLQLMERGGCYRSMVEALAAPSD
T3 sequence (P36372 1-703 with E218M Q262R S265P L266F, looked up): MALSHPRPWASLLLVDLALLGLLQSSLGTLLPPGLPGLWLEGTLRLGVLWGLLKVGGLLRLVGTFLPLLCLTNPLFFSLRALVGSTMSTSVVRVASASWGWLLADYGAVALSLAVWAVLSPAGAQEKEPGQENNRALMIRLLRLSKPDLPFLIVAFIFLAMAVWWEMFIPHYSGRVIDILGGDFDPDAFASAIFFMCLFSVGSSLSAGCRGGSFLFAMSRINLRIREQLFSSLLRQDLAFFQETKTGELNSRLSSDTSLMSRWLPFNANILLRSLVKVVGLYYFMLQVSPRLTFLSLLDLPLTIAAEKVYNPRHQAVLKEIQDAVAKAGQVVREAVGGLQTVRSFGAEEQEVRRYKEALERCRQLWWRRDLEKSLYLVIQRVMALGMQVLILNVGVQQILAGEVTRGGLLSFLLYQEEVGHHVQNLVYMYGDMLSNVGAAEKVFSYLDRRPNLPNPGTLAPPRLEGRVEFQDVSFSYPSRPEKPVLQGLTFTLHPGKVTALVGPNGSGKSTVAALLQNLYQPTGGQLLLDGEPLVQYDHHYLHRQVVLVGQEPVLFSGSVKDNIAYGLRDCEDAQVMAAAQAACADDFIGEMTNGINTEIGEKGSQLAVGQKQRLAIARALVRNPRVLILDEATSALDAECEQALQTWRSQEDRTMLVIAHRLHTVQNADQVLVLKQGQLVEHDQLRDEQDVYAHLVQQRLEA


Columns and labels:
Test in all cases: cross-linking
[1] = biological target: T1, wild type rat TAP1/TAP2a complex (rat)
rTAP1/TAP2a(E218M) (rat) = biological target: T2, rTAP1/TAP2a(E218M) (rat)
[2] = biological target: T3, rTAP1/TAP2a(E218M/Q262R/S265P/L266F) (rat)

Row | Binder | IC50 [1] [nM] | Kd (rTAP1/TAP2a(E218M) (rat)) [nM] | Kd [2] [nM] | Kd [1] [nM]
1 | TVDNKTAYR […, unlabeled competitor peptide] | > 2000 | – | – | –
2 | TVDNK(FITC′)CAYV [TVDNK*CAYV (TC6V), FITC-labeled] | – | 339 | 107 | 417
3 | TVDNK(FITC′)CAYR [TVDNK*CAYR (TC6R), FITC-labeled] | – | – | – | 187
